{"source": "patent US20240218342A1", "about": "“SITE-SPECIFIC GLYCAN REMODELING OF LYSOSOMAL ENZYMES AND APPLICATIONS THEREOF” (priority 2021, published 2024)", "molecular_target": "GlcNAc-peptide derived from rhGAA containing N470 glycosite (human)", "sequence (peptide, as listed by the source)": "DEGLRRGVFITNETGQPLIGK"}
{"substance": "Endo A-N171A (enzyme)", "values": [{"measurement": "transglycosylation of oxazoline 1 to the GlcNAc-peptide, yield of glycopeptide 66", "result": 53, "unit": "%"}]}
